Assay results reported in US20080220446A1, “Method for Detecting and/or Removing Protein and/or Peptide Comprising a Cross-Beta Structure From an Aqueous Solution Comprising a Protein” (priority 2005, published 2008).

Key:
[1] = Stability testing of biopharmaceuticals under denaturing conditions; type: physicochemical; settings: after exposure to harsh denaturing conditions (low pH or heat)
Method: For this purpose, 5 mg/mL Glucagon (Glucagen; Novo Nordisk Farma B. V., Alphen aan de Rijn, The Netherlands) was incubated at 37° C. in 0.01 M HCl for 48 hours. One mg/mL Etanercept (Enbrel; Wyeth Pharmaceuticals B. V., Hoofddorp, The Netherlands) in 67 mM sodium phosphate buffer, 100 mM NaCl pH 7.0 was gradually heated from 30° C. to 85° C. over a period of 12 minutes and afterwards cooled to 4° C. for 5 minutes, this treatment was repeated 4 times. Abciximab (Reopro; Centocor B. V., Leiden, The Netherlands) and Infliximab (Remicade; Schering-Plough B. V., Utrecht, The Netherlands) were incubated at 65° C. for 16 and 72 hours, respectively.

BiP = target: T1, BiP (Homo sapiens, UniProt P11021); experiment: Affinity determination ELISA, BiP on coated (mis)folded proteins; type: binding; settings: coated protein as labelled
T1 construct: made in house; host or cells: HEK293E
Description: (§1) Synthetic genes of human BiP, human fibronectin finger 4,5 (Fn F4,5) fragment, and human tissue-type plasminogen activator finger EGF (tPA F-EGF) fragment were ordered from Geneart (Regensburg, Germany). These DNA constructs were digested using BamHI and NotI, and ligated into vector pABC674 (ABC-expression facility, Utrecht University, The Netherlands), which contains a carboxy-terminal FLAG-tag—His-tag. HEK293E cells were transiently transfected with these constructs using the polyethylene-imine method, and grown for 5-6 days.
(§2) Denatured proteins and their native controls BSA (Sigma, A7906), glycated BSA, Hb (Sigma, H7605), glycated Hb, ovalbumin (Sigma, A6741), heat-denatured misfolded ovalbumin, human γ-globulins (Sigma, G4386), heat-denatured misfolded γ-globulins, alkyl-γ-globulins, lysozyme (ICN Biochemicals, 100831) and alkyl-lysozyme were coated on ELISA plates (Greiner Microlon high-binding, 655092) in 50 mM NaHCO3-buffer pH 9.6. The plates were blocked using Blocking reagent (Roche 1112589). […] Bound protein is detected by the FLAG-tag using 1:3000 anti-FLAG-HRP (Sigma A-8592) in PBS-T, or by 1:1000 Ni-NTA-HRP (Qiagen 34530) in PBS-T. The HRP reaction Is performed using the TMB substrate (Biosource 4501103 or Tebu Bio 101TMB100-500), stopped using 10% H2SO4 and absorbance was measured at 450 nm.

fibronectin F4,5 = target: T2, fibronectin F4,5 (Homo sapiens, UniProt P02751); experiment: Affinity determination ELISA, fibronectin F4,5 on coated (mis)folded proteins; type: binding; settings: coated protein as labelled
T2 construct: human fibronectin finger 4,5 (Fn F4,5) fragment; made in house; host or cells: HEK293E
Description: as §1, §2

tPA F-EGF = target: T3, tPA F-EGF (Homo sapiens, UniProt P00750); experiment: Affinity determination ELISA, tPA F-EGF on coated (mis)folded proteins; type: binding; settings: coated protein as labelled, relative to native control
T3 construct: made in house; host or cells: HEK293E
T3 sequence (P00750 36-120 limits assumed): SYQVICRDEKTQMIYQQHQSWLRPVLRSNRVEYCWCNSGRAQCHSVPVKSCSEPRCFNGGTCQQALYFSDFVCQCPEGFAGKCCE
Description: as §1, §2

platelets = experiment: Platelet aggregation assay with BSA-AGE spiked plasma before and after depletion; type: cell-based, human; settings: 512-fold diluted plasma spiked with 250 μg/ml, tenfold diluted
Method: Results are compared to platelet activating properties of the spiked plasma before depletion of BSA-AGE.
Freshly drawn human aspirin free blood was mixed gently with citrate buffer to avoid coagulation. Blood was spinned for 15′ at 150*g at 20° C. and supernatant was collected; platelet rich plasma (PRP) with an adjusted final platelet number of 200,000 platelets/μl. Platelets were kept at 37° C. for at least 30′, before use in the assays, to ensure that they were in the resting state. For the aggregometric assays, 270 μl platelet solution was added to a glass tube and prewarmed to 37° C. A stirring magnet was added and rotation was set to 900 rpm, and the apparatus (Whole-blood aggregometer, Chrono-log, Havertown, Pa., USA) was blanked. […] Aggregation was followed in time by measuring the absorbance of the solution, that will decrease in time upon platelet aggregation. As a positive control synthetic thrombin receptor activating peptide TRAP was used. Aggregation was recorded for 15′ and expressed as the percentage of the transmitted light (0-100%).

T1 sequence (P11021 19-654): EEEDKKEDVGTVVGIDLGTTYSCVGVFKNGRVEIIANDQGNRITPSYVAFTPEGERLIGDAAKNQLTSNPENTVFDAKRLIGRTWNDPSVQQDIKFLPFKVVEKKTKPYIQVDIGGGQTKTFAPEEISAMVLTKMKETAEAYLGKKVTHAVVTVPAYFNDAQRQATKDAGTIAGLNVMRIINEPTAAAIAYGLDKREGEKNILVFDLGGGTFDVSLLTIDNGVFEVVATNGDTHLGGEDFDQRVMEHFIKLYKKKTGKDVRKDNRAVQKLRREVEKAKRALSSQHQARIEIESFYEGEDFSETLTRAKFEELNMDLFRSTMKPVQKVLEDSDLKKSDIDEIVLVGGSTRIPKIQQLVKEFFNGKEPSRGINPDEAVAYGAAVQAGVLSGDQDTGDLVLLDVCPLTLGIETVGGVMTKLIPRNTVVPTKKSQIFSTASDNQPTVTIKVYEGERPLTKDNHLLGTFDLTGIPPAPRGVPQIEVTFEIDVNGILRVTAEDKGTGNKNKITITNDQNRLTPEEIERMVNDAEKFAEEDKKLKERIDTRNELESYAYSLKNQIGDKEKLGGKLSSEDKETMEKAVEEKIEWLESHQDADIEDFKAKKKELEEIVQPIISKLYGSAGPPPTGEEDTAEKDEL
T2 sequence (P02751 182-276 limits assumed): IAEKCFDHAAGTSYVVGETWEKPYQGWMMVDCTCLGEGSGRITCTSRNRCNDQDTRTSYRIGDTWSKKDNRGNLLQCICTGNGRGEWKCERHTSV

Abciximab: abciximab, an inhibitor of blood platelet aggregation (ReoPro, Centocor)
amyloid-like properties (ThT-fluorescence and tPA activation) [1]: amyloid-like properties are adopted

albumin-AGE: advanced glycation end-product modified bovine serum albumin
binding of BiP (BiP): high affinity
affinity for fibronectin F4,5 (fibronectin F4,5): High affinities
binding of tPA F-EGF (tPA F-EGF): High binding affinities
platelet aggregation (platelets): Platelets readily aggregate
